Data from the MegaScale stability set (Tsuboyama et al. 2023).

B1: 2K2A (parent)
chain: ELREAFRLYDKEGNGYISTDVMREILAELDETLSSEDLDAMIDEIDADGSGTVDFEEFMGVMT

Variants of: B1
Test: folding stability dG (cDNA display proteolysis); higher = more stable
Conditions: PBS, room temperature

Row | Variant | folding stability dG
1 | R3E | 9.05 kJ/mol
2 | R3T | 6.04 kJ/mol
3 | R3D | 6.78 kJ/mol
4 | R3Y | 10.4 kJ/mol
5 | R3W | 9.56 kJ/mol
6 | R3I | 8.31 kJ/mol
7 | R3H | 7.15 kJ/mol
8 | G15C | 4.59 kJ/mol
9 | G15W | 3.44 kJ/mol
10 | G15Y | 2.39 kJ/mol
11 | G15N | 3.1 kJ/mol
12 | F55K | 0.552 kJ/mol
13 | F55I | 6.15 kJ/mol
14 | L29M | 8.98 kJ/mol
15 | L29R | 8.89 kJ/mol
16 | L29Q | 6.23 kJ/mol
17 | E28G | 9.55 kJ/mol
18 | E28I | 7.73 kJ/mol
19 | E28L | 9.43 kJ/mol
20 | E28W | 7.9 kJ/mol
21 | V61A | 9.2 kJ/mol
22 | V61R | 4.84 kJ/mol
23 | V61C | 7.8 kJ/mol
24 | V61M | 7.64 kJ/mol

Row | Variant | folding stability dG
25 | V61N | 2.37 kJ/mol
26 | V61F | 11.5 kJ/mol
27 | V61Y | 11.2 kJ/mol
28 | E24T | 9.27 kJ/mol
29 | E24M | 10.5 kJ/mol
30 | E24R | 10.8 kJ/mol
31 | E24C | 10.9 kJ/mol
32 | E24D | 7.41 kJ/mol
33 | E24A | 9.85 kJ/mol
34 | E24F | 9.7 kJ/mol
35 | V21T | 8.04 kJ/mol
36 | V21K | 8.54 kJ/mol
37 | V21N | 7.27 kJ/mol
38 | V21L | 9.17 kJ/mol
39 | V21E | 6.53 kJ/mol
40 | V21A | 9.09 kJ/mol
41 | V21R | 7.88 kJ/mol
42 | V21Q | 9.87 kJ/mol
43 | D10H | -0.364 kJ/mol
44 | D10G | 0.515 kJ/mol
45 | D10L | 5.26 kJ/mol
46 | D10S | 2.3 kJ/mol
47 | D10F | 6.93 kJ/mol
48 | D10I | 5.05 kJ/mol

Row | Variant | folding stability dG
49 | D10C | 9.14 kJ/mol
50 | E44R | 9.05 kJ/mol
51 | E44S | 8.47 kJ/mol
52 | E44A | 8.87 kJ/mol
53 | E44D | 7.37 kJ/mol
54 | E44N | 8.16 kJ/mol
55 | E44C | 9.14 kJ/mol
56 | E44W | 9.16 kJ/mol
57 | E44V | 8.39 kJ/mol
58 | E44F | 9.06 kJ/mol
59 | E44L | 9.18 kJ/mol
60 | G13I | 2.25 kJ/mol
61 | G13F | 3.9 kJ/mol
62 | G13P | -0.611 kJ/mol
63 | G13Q | 5.26 kJ/mol
64 | G13C | 6.29 kJ/mol
65 | G13E | 4.59 kJ/mol
66 | G13T | 1.87 kJ/mol
67 | D43L | 9.32 kJ/mol
68 | D43M | 9.7 kJ/mol
69 | D43S | 9.13 kJ/mol
70 | D43E | 8.48 kJ/mol
71 | D43G | 7.82 kJ/mol
72 | D43Y | 9.02 kJ/mol

Row | Variant | folding stability dG
73 | G60R | 11.8 kJ/mol
74 | G60W | 11.7 kJ/mol
75 | G60H | 10.4 kJ/mol
76 | G60V | 8.92 kJ/mol
77 | G60M | 10.5 kJ/mol
78 | G60A | 10.6 kJ/mol
79 | G51I | 0.268 kJ/mol
80 | G51E | 2.6 kJ/mol
81 | G51N | 4.95 kJ/mol
82 | G51V | 0.121 kJ/mol
83 | G51Y | 2.16 kJ/mol
84 | Y9A | 6.51 kJ/mol
85 | Y9G | 1 kJ/mol
86 | Y9F | 6.64 kJ/mol
87 | Y9M | 5.99 kJ/mol
88 | Y9H | 6.64 kJ/mol
89 | Y9L | 8.66 kJ/mol
90 | Y9K | 3.24 kJ/mol
91 | R23I | 1.53 kJ/mol
92 | R23G | -1.58 kJ/mol
93 | R23A | 0.761 kJ/mol
94 | R23H | -0.142 kJ/mol
95 | R23Y | 2.49 kJ/mol
96 | T32W | 6.79 kJ/mol

Row | Variant | folding stability dG
97 | T32P | 1.85 kJ/mol
98 | T32C | 7.26 kJ/mol
99 | T32N | 7.79 kJ/mol
100 | T32H | 7.52 kJ/mol
101 | T32Q | 6.58 kJ/mol
102 | T32L | 6.1 kJ/mol
103 | G49T | 3.88 kJ/mol
104 | G49K | 8.34 kJ/mol
105 | G49V | 3.34 kJ/mol
106 | G49P | 0.381 kJ/mol
107 | G49H | 8.13 kJ/mol
108 | G49C | 7.15 kJ/mol
109 | G49N | 7.72 kJ/mol
110 | G49D | 5.93 kJ/mol
111 | G49Y | 4.36 kJ/mol
112 | A27G | 6.17 kJ/mol
113 | A27S | 7.81 kJ/mol
114 | A27W | 7.25 kJ/mol
115 | A27K | 9.23 kJ/mol
116 | S18H | 6.45 kJ/mol
117 | S18R | 6.65 kJ/mol
118 | S18A | 5.94 kJ/mol
119 | S18Q | 4.24 kJ/mol
120 | S18P | 6.6 kJ/mol

Row | Variant | folding stability dG
121 | S18F | 4.82 kJ/mol
122 | S18E | 3.49 kJ/mol
123 | S18M | 5.25 kJ/mol
124 | T19N | 7.25 kJ/mol
125 | T19R | 7.8 kJ/mol
126 | T19Y | 8.49 kJ/mol
127 | T19M | 7.98 kJ/mol
128 | T19K | 7 kJ/mol
129 | T19P | 3.19 kJ/mol
130 | L8K | 10.2 kJ/mol
131 | L8W | 7.67 kJ/mol
132 | L8G | 7.23 kJ/mol
133 | L8Y | 8.26 kJ/mol
134 | L8P | 3.57 kJ/mol
135 | L8F | 8.8 kJ/mol
136 | L8R | 9.96 kJ/mol
137 | K11Q | 7.21 kJ/mol
138 | K11M | 7.39 kJ/mol
139 | K11L | 8.9 kJ/mol
140 | K11C | 8.66 kJ/mol
141 | K11R | 7.17 kJ/mol
142 | K11Y | 6.82 kJ/mol
143 | F58N | -3.57 kJ/mol
144 | F58Q | -3.96 kJ/mol

Row | Variant | folding stability dG
145 | F58W | 7.07 kJ/mol
146 | E36K | 7.58 kJ/mol
147 | E36L | 6.93 kJ/mol
148 | E36F | 7.68 kJ/mol
149 | E36S | 7.86 kJ/mol
150 | E36G | 6.46 kJ/mol
151 | S35E | 9.01 kJ/mol
152 | S35L | 7.06 kJ/mol
153 | S35V | 7.41 kJ/mol
154 | S35M | 7.8 kJ/mol
155 | S35N | 7.75 kJ/mol
156 | S35P | 8.64 kJ/mol
157 | S35Q | 8.57 kJ/mol
158 | S35T | 7.58 kJ/mol
159 | M62C | 7.59 kJ/mol
160 | M62F | 8.51 kJ/mol
161 | M62G | 2.15 kJ/mol
162 | M62R | 2.97 kJ/mol
163 | D37L | 6.64 kJ/mol
164 | D37M | 8.2 kJ/mol
165 | D37H | 5.86 kJ/mol
166 | D37R | 7.61 kJ/mol
167 | D37A | 7.8 kJ/mol
